Experimental data taken from publication PMC6265244, “A synthetic microbial biosensor for high-throughput screening of lactam biocatalysts” (Nature Communications, 2018).

Legend:
[1] = target: 3-hydroxybutyrate dehydrogenase from Citrobacter freundii (CF3HBD) (Citrobacter freundii); test: crystal structure; hanging-drop vapor diffusion at 20 °C, protein with 5 mM NAD+, 3.2 M sodium acetate pH 6.5; space group P2_(1), four molecules in an asymmetric unit
[2] = target: T1, SM3HBD (Serratia marcescens, UniProt A0A2F0PAS1); test: cyclization assay with purified enzyme, ε-caprolactam formed; type: biochemical
T1 construct: gene DMW51_14370
T1 sequence (A0A2F0PAS1 1-256): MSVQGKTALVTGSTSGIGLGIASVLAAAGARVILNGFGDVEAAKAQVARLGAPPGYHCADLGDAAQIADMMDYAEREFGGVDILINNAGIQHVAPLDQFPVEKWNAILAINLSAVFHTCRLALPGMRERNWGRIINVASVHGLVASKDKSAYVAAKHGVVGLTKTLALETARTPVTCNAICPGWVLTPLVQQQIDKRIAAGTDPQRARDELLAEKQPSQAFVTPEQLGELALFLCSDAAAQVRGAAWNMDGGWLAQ

[3] = target: T2, CF3HBD (Citrobacter freundii, UniProt A0A0D7LY80); test: X-ray crystal structure, […] Å; type: binding; details: 5 mM NAD+, 3.2 M sodium acetate pH 6.5, 20 °C
T2 construct: gene AI2602V1_2506; tetramer in the asymmetric unit (two subunits NAD+-free)
T2 sequence (A0A0D7LY80 1-256): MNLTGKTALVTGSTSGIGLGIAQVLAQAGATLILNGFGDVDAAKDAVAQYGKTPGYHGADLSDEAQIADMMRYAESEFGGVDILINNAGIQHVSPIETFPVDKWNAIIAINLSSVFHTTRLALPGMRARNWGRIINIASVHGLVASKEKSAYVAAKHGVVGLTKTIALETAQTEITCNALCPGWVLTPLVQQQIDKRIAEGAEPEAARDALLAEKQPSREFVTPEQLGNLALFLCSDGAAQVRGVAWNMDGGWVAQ

[4] = substrate: NCCCCCC(=O)O; test: LC-MS of caprolactam formed, Michaelis-Menten fit; type: biochemical, Citrobacter freundii; details: 50 mM HEPES pH 7.5, 35 °C, 10 min, no cofactor or metal, cyclization to ε-caprolactam

With “3-hydroxybutyrate dehydrogenase from Citrobacter freundii (CF3HBD) (enzyme)” the stoichiometry N [1] was 4.

NCCCCCC(=O)O [6-aminocaproic acid] was tested, and the “cyclization assay with purified enzyme, ε-caprolactam formed” value [2] was “both enzymes showed cyclization activity towards 6-ACA to produce ε-caprolactam”.

For NC(=O)c1ccc[n+]([C@@H]2O[C@H](COP(=O)(O)OP(=O)(O)OC[C@H]3O[C@@H](n4cnc5c(N)ncnc54)[C@H](O)[C@@H]3O)[C@@H](O)[C@H]2O)c1 [NAD^+], the “X-ray crystal structure, 2.29 Å” value [3] was “we determined the crystal structure of CF3HBD in complex with NAD^+”.

B1: CF3HBD (Citrobacter freundii) (protein)
chain: MNLTGKTALVTGSTSGIGLGIAQVLAQAGATLILNGFGDVDAAKDAVAQYGKTPGYHGADLSDEAQIADMMRYAESEFGGVDILINNAGIQHVSPIETFPVDKWNAIIAINLSSVFHTTRLALPGMRARNWGRIINIASVHGLVASKEKSAYVAAKHGVVGLTKTIALETAQTEITCNALCPGWVLTPLVQQQIDKRIAEGAEPEAARDALLAEKQPSREFVTPEQLGNLALFLCSDGAAQVRGVAWNMDGGWVAQ
notes: tetramer in the asymmetric unit (two subunits NAD+-free)
For B1, the Km [4] was 3.3 ± 0.3 mM, the kcat [4] was 0.0012 ± 3.33e-05 s⁻¹ and the kcat/Km [4] was 0.363 ± 0.03 M⁻¹ s⁻¹.
